Laboratory results published in publication doi:10.1101/2025.08.22.671756, “Structural basis of Drosophila insulin receptor activation by DILP2 hormone” (bioRxiv, 2025).

Molecular target: the molecule itself
Test: cryo-EM structure; dmIR-ECD 0.2 mg/ml in SEC buffer (25 mM HEPES pH 8.0, 200 mM NaCl) incubated with 40-fold molar excess of DILP2 at room temperature for 30 min; two conformers from subsets of the particles (3.75 Å and 6.25 Å maps)

B1: Drosophila melanogaster insulin receptor ectodomain (dmIR-ECD) (domain or fragment, UniProt P09208 291-1309, looked up)
chain: LPAHQQHLLHNDIADGLDKTALSVSGTQSRWTRSESNPTMRLSQNVKPCKSMDIRNMVSHFNQLENCTVIEGFLLIDLINDASPLNRSFPKLTEVTDYIIIYRVTGLHSLSKIFPNLSVIRGNKLFDGYALVVYSNFDLMDLGLHKLRSITRGGVRIEKNHKLCYDRTIDWLEILAENETQLVVLTENGKEKECRLSKCPGEIRIEEGHDTTAIEGELNASCQLHNNRRLCWNSKLCQTKCPEKCRNNCIDEHTCCSQDCLGGCVIDKNGNESCISCRNVSFNNICMDSCPKGYYQFDSRCVTANECITLTKFETNSVYSGIPYNGQCITHCPTGYQKSENKRMCEPCPGGKCDKECSSGLIDSLERAREFHGCTIITGTEPLTISIKRESGAHVMDELKYGLAAVHKIQSSLMVHLTYGLKSLKFFQSLTEISGDPPMDADKYALYVLDNRDLDELWGPNQTVFIRKGGVFFHFNPKLCVSTINQLLPMLASKPKFFEKSDVGADSNGNRGSCGTAVLNVTLQSVGANSAMLNVTTKVEIGEPQKPSNATIVFKDPRAFIGFVFYHMIDPYGNSTKSSDDPCDDRWKVSSPEKSGVMVLSNLIPYTNYSYYVRTMAISSELTNAESDVKNFRTNPGRPSKVTEVVATAISDSKINVTWSYLDKPYGVLTRYFIKAKLINRPTRNNNRDYCTEPLVKAMENDLPATTPTKKISDPLAGDCKCVEGSKKTSSQEYDDRKVQAGMEFENALQNFIFVPNIRKSKNGSSDKSDGAEGAALDSNAIPNGGATNPSRRRRDVALEPELDDVEGSVLLRHVRSITDDTDAFFEKDDENTYKDEEDLSSNKQFYEVFAKELPPNQTHFVFEKLRHFTRYAIFVVACREEIPSEKLRDTSFKKSLCSDYDTVFQTTKRKKFADIVMDLKVDLEHANNTESPVRVRWTPPVDPNGEIVTYEVAYKLQKPDQVEEKKCIPAADFNQTAGYLIKLNEGLYSFRVRANSIAGYGDFTEVEHIKVEPPPSYA
notes: Insulin receptor (dmIR), Drosophila melanogaster, ectodomain; Expressed from codon-optimised DNA for residues 264-1309 with an added start codon; the results name the construct 291Leu-1309Ala; Described as an (αβ)2 homodimer; N-glycans are visible in the maps; also called dmIR ectodomain; 291Leu-1309Ala dmIR-ECD construct; source: Sf9 (ExpiSf9) cells, baculovirus, conditioned media, purified …
Does B1 bind?
Result: binds
